Patent publication US7482329B2, “Single domain TDF-related compounds and analogs thereof” (Thrasos Therapeutics, priority 2002, dated 2009)
Entries after “also recorded” stand apart in the source; their conditions may differ. Where a SMILES comes first, the peptide text is derived from it.

What was measured:
[1] = system: ICAM-1 in HK2 human transformed kidney proximal tubule cells; experiment: ICAM-1 level in HK-2 cell medium after TNF-alpha stimulation (ELISA); type: cell-based; settings: FIG. 7; for effect on level of ICAM-1 in HK2 cell medium: after TNF-alpha inflammatory stimulation
Experimental: The immortalized PTEC-derived HK-2 (Human Kidney-2) cells (ATCC number CRL-2190) were grown in serum-free keratinocyte medium (GIBCO number 17005-042) supplemented with epidermal growth factor (EGF: 5 ng/mL) and bovine pituitary extract (40 ug/mL) for 48 hours as described previously (Ryan et al (1994) Kidney International 45:48-57). Cells were transferred to 24-well plates at a density of 3×10^5 cells per well. After 24 hours, cells were incubated with fresh medium containing TNF-alpha (5 ng/mL) for 20 hours. Controls received medium alone. Then cells were washed twice with fresh culture medium and further incubated with culture medium alone (medium control, and TNF control wells) or TDF-1 at three different concentrations (40, 200 or 1000 ng/mL) or TDFRP compounds at three different concentrations (4, 20 or 100 uM) for sixty hours. During incubation, cells were kept in a 5% CO2 humid atmosphere at 37° C. At the end of the incubation, the media were removed and stored frozen until assayed. The concentrations of IL-6 and sICAM-in culture supernatants were measured by specific ELISA.
Dilute the capture antibody to the working concentration in PBS, pH 7.4 without carrier protein. Add 61 uL of stock antibody (720 ug/mL) to 10.939 mL of PBS, gently vertex. Immediately coat a 96 well microplate (Immulon 4 HBX) with 100 uL per well of the diluted capture antibody. Seal the plate and incubate it overnight in cold (4° C.). (PBS: 8.1 mM Na2HPO4, 1.5 mM KH2PO4, 137 mM NaCl, 2.7 mM KCl, pH 7.4, 0.2 um filtered).
Next day empty the wells and wash the wells three times, each time using 340 uL of wash buffer per well. (wash buffer: PBS, pH 7.4 containing 0.05% Tween-20). Prepare blocking buffer, 35 mL per plate. To prepare blocking buffer, add 0.35 grams of BSA and 1.75 grams of sucrose to 35 mL of PBS, pH 7.4, and mix the contents gently. Add 300 uL of blocking buffer to each well and incubate the plate for a minimum of 1 hour at room temperature. Empty the wells and wash wells three times, each time using 340 uL of wash buffer per well. […]

[2] = system: end stage renal failure in a remnant kidney; settings: rats, administered systemically, remnant kidney (5/6 nephrectomy); cited from earlier work
[3] = target: T1, BMPR-1A (ALK3) receptor extra cellular domain (Homo sapiens, UniProt P36894); experiment: Radio-ligand receptor binding assay, competition with 125I-labeled TDF-1 for ALK-3; settings: FIG. 1; cold ligand vs 125I-labeled TDF-1; read-out: ED50, displacing labeled TDF-1 from immobilized BMPR-1A receptor ECD
T1 construct: immobilized BMPR-1A receptor extra cellular domain (ECD)
Description: General protocol: These assays are based on competition between ^125I-labeled TDF-1 (BMP-7 or OP-1) and candidate TDFRP compounds or unlabeled TDF-1 for binding to respective receptors (ALK-3, ALK-6 or BMPR-2). In brief, the procedure involves immobilization of receptor on 96 well Removawell plates, blocking the wells with 3% BSA in PBS and subsequently washing the wells. Increasing concentrations of unlabeled TDF-1 or TDFRP compounds or control (unlabeled TDF-1) prepared in binding buffer are then added. Incubate plate for 1 hour at room temperature, and then add a fixed amount of ^125I-labeled TDF-1 (250,000 to 350,000 cpm) to the wells and further incubate in cold (4° C.) for 20 hours. Aspirate the contents of the wells and wash the wells four times with a wash buffer, and count the receptor bound ^125I-labeled TDF-1 in an auto gamma counter. B. HK-2 Cell Culture and Determination of Cytokine Production

[4] = system: unilateral ureteral obstruction; settings: rats, administered systemically, UUO; cited from earlier work

T1 sequence (P36894 24-152 limits assumed, species assumed): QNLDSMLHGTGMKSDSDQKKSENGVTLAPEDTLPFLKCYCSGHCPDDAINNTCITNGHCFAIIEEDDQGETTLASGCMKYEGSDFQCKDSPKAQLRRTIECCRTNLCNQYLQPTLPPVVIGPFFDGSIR

Row | EC50 ([1]; HK2 cells, TNF-alpha stimulus, read-out: ED50, lowering of ICAM-1 level) | EC50 [3] | Molecule | effect on level of ICAM-1 in HK2 cell medium [1] | progression of end stage renal failure [2] | prophylaxis in unilateral ureteral obstruction [4]
1 | < 4000 nM | – | CC(C)C[C@H](NC(=O)[C@@H](NC(=O)[C@H](CC(N)=O)NC(=O)[C@H](CO)NC(=O)[C@H](CO)NC(=O)[C@H](CC(=O)O)NC(=O)[C@H](CC(=O)O)NC(=O)[C@H](Cc1ccccc1)NC(=O)[C@H](Cc1ccc(O)cc1)NC(=O)[C@@H](N)CS)C(C)C)C(=O)N[C@@H](CS)C(=O)N[C@@H](CCCCN)C(=O)N[C@@H](CCCCN)C(=O)N[C@@H](Cc1ccc(O)cc1)C(=O)N[C@@H](CCCNC(=N)N)C(=O)N[C@@H](CO)C(=O)O [SEQ ID NO:45, CYFDDSSNVLCKKYRS] (H-CYFDDSSNVLCKKYRS-OH) | reduces the level of cellular inflammation marker ICAM-1; also recorded: lowers the level of ICAM-1 in a dose dependent manner | – | –
2 | – | 6.5 nM | TDF-1: TDF-1 (BMP-7 or OP-1), bone morphogenetic protein-7; unlabeled control ligand in the binding and cell assays (protein) STGSKQRSQNRSKTPKNQEALRMANVAENSSSDQRQACKKHELYVSFRDLGWQDWIIAPEGYAAYYCEGECAFPLNSYMNATNHAIVQTLVHFINPETVPKPCCAPTQLNAISVLYFDDSSNVILKKYRNMVVRACGCH | lowers the level of ICAM-1 in a dose dependent manner | halts the progression of end stage renal failure | short term prophylaxis
